T1: Tyro3 ECD FNIII 1-FNIII-2
T1 construct: also called FNIII 1 + FNIII 2 fragment of hTyro3 ECD, His-Strep tagged
T1 fragment: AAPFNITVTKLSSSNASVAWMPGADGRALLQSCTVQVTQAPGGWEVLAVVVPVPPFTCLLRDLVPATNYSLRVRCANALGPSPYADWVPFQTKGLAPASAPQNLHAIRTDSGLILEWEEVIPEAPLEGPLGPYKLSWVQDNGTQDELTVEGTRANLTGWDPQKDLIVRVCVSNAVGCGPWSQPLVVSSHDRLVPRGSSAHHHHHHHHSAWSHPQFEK

T2: Ig-1 domain fragment of human Tyro3 ECD, His-Strep tagged (human)
T2 chain: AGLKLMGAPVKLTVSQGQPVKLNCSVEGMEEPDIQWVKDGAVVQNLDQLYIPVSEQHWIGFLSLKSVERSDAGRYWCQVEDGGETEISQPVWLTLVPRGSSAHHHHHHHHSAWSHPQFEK

T3: Ig-1 and Ig-2 domains fragment of human Tyro3 ECD, His-Strep tagged (human)
T3 construct: also called Ig1-Ig2 fragment
T3 chain: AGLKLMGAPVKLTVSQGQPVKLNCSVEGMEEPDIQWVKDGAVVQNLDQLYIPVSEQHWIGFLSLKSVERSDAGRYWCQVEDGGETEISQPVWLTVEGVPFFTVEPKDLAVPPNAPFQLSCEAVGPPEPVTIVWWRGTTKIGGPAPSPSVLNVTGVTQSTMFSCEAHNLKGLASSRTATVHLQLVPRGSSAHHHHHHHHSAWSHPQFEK

T4: cynomolgus Tyro3 ECD, His-Strep tagged
T4 construct: also called cyno TYRO3 ECD 8hisstrep
T4 extracellular domain: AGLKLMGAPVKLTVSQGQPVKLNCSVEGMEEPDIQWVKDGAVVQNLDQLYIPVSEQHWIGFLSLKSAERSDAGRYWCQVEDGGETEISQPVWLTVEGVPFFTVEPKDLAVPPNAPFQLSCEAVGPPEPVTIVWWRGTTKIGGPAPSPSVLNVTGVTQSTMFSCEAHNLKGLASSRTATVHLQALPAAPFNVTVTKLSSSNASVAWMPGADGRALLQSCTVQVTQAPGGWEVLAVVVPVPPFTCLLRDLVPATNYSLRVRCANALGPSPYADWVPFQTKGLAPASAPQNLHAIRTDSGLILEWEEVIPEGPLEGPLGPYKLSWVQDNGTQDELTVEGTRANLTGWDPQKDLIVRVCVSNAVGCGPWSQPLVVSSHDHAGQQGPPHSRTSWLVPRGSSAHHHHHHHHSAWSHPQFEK

T5: Tyro3 ECD Ig2-FNIII 1
T5 construct: also called Ig2 + FNIII 1 fragment of hTyro3 ECD, His-Strep tagged
T5 fragment: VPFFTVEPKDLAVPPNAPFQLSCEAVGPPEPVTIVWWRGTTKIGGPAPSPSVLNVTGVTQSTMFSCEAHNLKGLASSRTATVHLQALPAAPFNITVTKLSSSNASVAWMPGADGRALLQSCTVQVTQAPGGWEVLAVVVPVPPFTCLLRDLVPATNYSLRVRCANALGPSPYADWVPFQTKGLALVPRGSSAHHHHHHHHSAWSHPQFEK


How the values were obtained:
[1] = molecular target: T1, Tyro3 ECD FNIII 1-FNIII-2; test: sandwich ELISA, Strep-tagged fragment captured on StrepMAB plate, scFv 10 µg/mL (Table 17), anti-FLAG-HRP
[2] = molecular target: T2, Ig-1 domain fragment of human Tyro3 …; test: as above
[3] = molecular target: T3, Ig-1 and Ig-2 domains fragment of human …; test: as above
[4] = molecular target: T4, cynomolgus Tyro3 ECD, His-Strep tagged; test: sandwich ELISA, Strep-tagged cynomolgus Tyro3 ECD captured on StrepMAB plate, scFv 3-fold from 10 µg/mL, anti-FLAG-HRP
Procedure: [The procedure below names another species; the source lists this species under the same test.] A double sandwich ELISA was developed. This assay consisted in measuring the binding of the anti-Tyro3 antibodies to be tested on immobilized strep-tagged entire human Tyro3 ECD captured directly on ELISA plate pre-coated with an anti-strep mAb (StrepMAB-Immo coated microplates from IBA biotech). Briefly, the 96 wells of StrepMAB-Immo coated microplate were washed three times with 300 μL of the PBS Tween 0.2% (referred as ELISA washing solution). The capture of an excess of purified strep tagged hTyro3 ECD protein was achieved by a one hour incubation at room temperature. In these experiments, 3 μg of purified protein diluted in PBS, BSA 1% (referred as ELISA diluent solution) were immobilized per well. The wells were washed three times with 300 μL of the washing solution. The non-specific binding sites on the well surface were blocked during 60 min at room temperature with 200 μL/well of blocking solution (PBS, BSA 3%). The wells were washed five times with 300 μL of the washing solution. Then, 100 μl (in duplicates) of the different concentrations of anti-Tyro3 antibodies to be tested diluted in ELISA diluent solution, were added per well and allowed to incubate during 1 hour at room temperature. An Irrelevant control IgG2656 was also added in this experiment. For anti-Tyro3 antibodies in the ScFv format, experiments were performed with 6 concentrations in duplicates (FIG. 3A). For anti-Tyro3 antibodies in the IgG format, experiments were performed with 9 concentrations in duplicates (FIG. 3B). […] For IgGs experiments, starting concentration for first dilution was 3 μg/ml and then dilutions of 3 fold in the ELISA diluent solution were performed. The wells were washed five times with 300 μL of the washing solution. […] The mix was allowed to incubated 60 min at room temperature.

Tyro3 ECD Ig2-FNIII 1 = molecular target: T5, Tyro3 ECD Ig2-FNIII 1; test: sandwich ELISA, Strep-tagged fragment captured on StrepMAB plate, scFv 10 µg/mL (Table 17), anti-FLAG-HRP

Binder	binding result [1]	binding result [2]	binding result [3]	binding result [4]	binding result (Tyro3 ECD Ig2-FNIII 1)
anti-Tyro3 scFv 2414 (scFv, V domains shown, Tested as a single-chain Fv made in E. coli) VH: EVQLVQSGADVKKPGASLTISCQASGYTFTDYWISWVRQKPGKGLEWMGQINRHASNTMYGPSFQGHVTISADRSTATAYLQWRSLEASDTAMYYCVRSGGATSGGTIPEYYQHWGPGTLVTVSS VL: SYELTQPPSVSVSPGQTARITCSGDALPKKYAYWYQQKSGQAPVLVIYEDWKRASGIPERFSGSSSGTMATLTISGAQVEDEADYYCYSQERKGNYFVFGGGTKLTVL	no binding (tested: 10 µg/mL)	binds	binds	binds	–
anti-Tyro3 scFv 2713 (scFv, V domains shown, Tested as a single-chain Fv made in E. coli) VH: EVQLVQSGADVKKPGASLTISCQASGYTFTDYWISWVRQKPGKGLEWMGRISRHGSQTYYGPSFQGHVTISADRSTATAYLQWRSLEASDTAMYYCVRAGGQTSGGTIPEYYQHWGPGTLVTVSS VL: SYELTQPPSVSVSPGQTARITCSGDALPKKYAYWYQQKSGQAPVLVIYEDHKRASGIPERFSGSSSGTMATLTISGAQVEDEADYYCYSISPAGNYGVFGGGTKLTVL	no binding (tested: 10 µg/mL)	binds	binds	binds	binds
anti-Tyro3 scFv 2415 (scFv, V domains shown, Tested as a single-chain Fv made in E. coli) VH: EVQLVQSGADVKKPGASLTISCQASGYTFTDYWISWVRQKPGKGLEWMGQIRGPASATHYGPSFQGHVTISADRSTATAYLQWRSLEASDTAMYYCVRHQQQTSGGTIPEYYQHWGPGTLVTVSS VL: SYELTQPPSVSVSPGQTARITCSGDALPKKYAYWYQQKSGQAPVLVIYEDKKRISGIPERFSGSSSGTMATLTISGAQVEDEADYYCYSTSTGGNYMVFGGGTKLTVL	no binding (tested: 10 µg/mL)	binds	binds	binds	binds
anti-Tyro3 scFv 2711 (scFv, V domains shown, Tested as a single-chain Fv made in E. coli) VH: EVQLVQSGADVKKPGASLTISCQASGYTFTDYWISWVRQKPGKGLEWMGQIRGQHSSTLYGPSFQGHVTISADRSTATAYLQWRSLEASDTAMYYCVRHGASTSGGTIPEYYQHWGPGTLVTVSS VL: SYELTQPPSVSVSPGQTARITCSGDALPKKYAYWYQQKSGQAPVLVIYEDAKRSSGIPERFSGSSSGTMATLTISGAQVEDEADYYCYSLSDSGNYFVFGGGTKLTVL	no binding (tested: 10 µg/mL)	binds	binds	binds	binds
anti-Tyro3 scFv 2412 (scFv, V domains shown, Tested as a single-chain Fv made in E. coli) VH: EVQLVQSGADVKKPGASLTISCQASGYTFTDYWISWVRQKPGKGLEWMGRIRPLLSHTMYGPSFQGHVTISADRSTATAYLQWRSLEASDTAMYYCVRSWLATSGGTIPEYYQHWGPGTLVTVSS VL: SYELTQPPSVSVSPGQTARITCSGDALPKKYAYWYQQKSGQAPVLVIYEDAKRVSGIPERFSGSSSGTMATLTISGAQVEDEADYYCYSASANGNYRVFGGGTKLTVL	no binding (tested: 10 µg/mL)	binds	binds	binds	binds

More lines, now with the values ahead:

binding result [1]	binding result [2]	binding result [3]	binding result [4]	binding result (Tyro3 ECD Ig2-FNIII 1)	Binder
no binding (tested: 10 µg/mL)	binds	binds	binds	no binding (tested: 10 µg/mL)	anti-Tyro3 scFv 2709 (scFv, V domains shown, Tested as a single-chain Fv made in E. coli) VH: EVQLVQSGADVKKPGASLTISCQASGYTFTDYWISWVRQKPGKGLEWMGAISRNGSTTYYGPSFQGHVTISADRSTATAYLQWRSLEASDTAMYYCVRSGGLTSGGTIPEYYQHWGPGTLVPVSS VL: SYELTQPPSVSVSPGQTARITCSGDALPKKYAYWYQQKSGQAPVLVIYEDKKRVSGIPERFSGSSSGTMATLTISGAQVEDEADYYCYSLAVDGNYGVFGGGTKLTVL
no binding (tested: 10 µg/mL)	binds	no binding (tested: 10 µg/mL)	binds	no binding (tested: 10 µg/mL)	anti-Tyro3 scFv 2717 (scFv, V domains shown, Tested as a single-chain Fv made in E. coli) VH: EVQLVQSGADVKKPGASLTISCQASGYTFTDYWISWVRQKPGKGLEWMGEIFLPPSTTVYGPSFQGHVTISADRSTATAYLQWRSLEASDTAMYYCVRQTRLTSGGTIPEYYQHWGPGTLVTVSS VL: SYELTQPPSVSVSPGQTARITCSGDALPKKYAYWYQQKSGQAPVLVIYEDNKRGSGIPERFSGSSSGTMATLTISGAQVEDEADYYCYSKSPEGNYMVFGGGTKLTVL
no binding (tested: 10 µg/mL)	binds	binds	binds	–	anti-Tyro3 scFv 2410 (scFv, V domains shown, Tested as a single-chain Fv made in E. coli) VH: EVQLVQSGADVKKPGASLTISCQASGYTFTDYWISWVRQKPGKGLEWMGQIVPRASRTNYGPSFQGHVTISADRSTATAYLQWRSLEASDTAMYYCVRPYFQTSGGTIPEYYQHWGPGTLVTVSS VL: SYELTQPPSVSVSPGQTARITCSGDALPKKYAYWYQQKSGQAPVLVIYEDEKRASGIPERFSGSSSGTMATLTISGAQVEDEADYYCYSQERNGNYAVFGGGTKLTVL

From patent publication US20180105596A1 (ELSALYS BIOTECH, published 2018)
